Data on 17 molecules can be found in patent US20130095122A1, “Peptides or Antibodies Which Bind to Melanoma Inhibitory Activity (MIA) Protein” (priority 2010, published 2013).

Sequences and labels used below:
B2: melanoma inhibitory activity (MIA) protein, recombinant human wild type (other)
chain: GPMPKLADRKLCADQECSHPISMAVALQDYMAPDCRFLTIHRGQVVYVFSKLKGRGRLFWGGSVQGDYYGDLAARLGYFPSSIVREDQTLKPGKVDVKTDKWDFYCQ
notes: In the HTFP assay one copy is labelled with Ru(bpy)3 (in solution) and the other is a biotin conjugate immobilised on streptavidin plates; 15N-enriched MIA was used for NMR; also called wt MIA; MIA wt (RTS)

In data set [1] the test system is hMSC. Kind of data set: Hanging drop assay (chondrogenic differentiation). It counts as cell-based, human. The conditions noted are these: after day 4 (FIG. 9). As to the method:
To generate spheroids the hMSC were detached from the culture flask by adding 1 ml Trypsin-EDTA (Provitro). After incubation for a 5 minutes 1 ml neutralizing solution (Provitro) and 8 ml HMSC proliferation medium were added. After centrifugation for 4 min at 1200 rpm and resuspension in Incomplete Chondrogenesis Induction Medium (DMEM with glucose (4.5 g/L), penicillin (400 units/ml) streptomycin (50 μg/ml), L-glutamine (300 μg/ml), sodium pyruvate (1 mM), L-ascorbic acid 2-phosphate (0.17 mM), L-proline ([…]), dexamethasone (1 μM) and ITS premix (BD Biosciences, Heidelberg, Germany)), the cells were counted and adjusted to 50,000 cells/ml. 20% methocel (6 g methyl cellulose (Sigma-Aldrich, Munich, Germany), 250 ml basal medium)) was added and 25 μl of the cells suspension were dropped onto the cover of a 9 mm petri dish. For each experimental condition 10 drops were used. The petri dish was filled with PBS and the cover dish was inverted and incubated for 72 h under a humidified atmosphere of 8% CO2 at 37° C. for 1, 2, 4 and 7 d followed by RNA isolation or alcian blue staining. For treatment, TGF-beta3 (10 ng/ml, Biomol, Hamburg, Germany) was added. At day 4 NA was extracted and analysed. The experiment was repeated 4 times.

The target of data set [2] is T1, MIA protein dimer (Homo sapiens, UniProt Q16674).
T1 construct: made in house; host or cells: cell-free Rapid Translation System RTS 500 E. coli HY Disulfite Kit (Roche)
T1 sequence (Q16674 25-131): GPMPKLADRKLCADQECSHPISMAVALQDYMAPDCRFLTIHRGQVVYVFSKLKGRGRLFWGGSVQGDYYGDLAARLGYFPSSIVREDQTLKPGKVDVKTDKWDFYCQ
As to the kind of experiment: Western blot analysis of MIA dimer bands. The data set is classed as biochemical. The conditions noted are these: western blotting, FIG. 6. As to the method:
(§1) Protein samples were denaturated at 70° C. for 10 min after addition of reducing and denaturing Roti-Load buffer (Roth, Karlsruhe, Germany) and subsequently separated on sodium dodecyl sulfate 12.75% polyacrylamid gels (SDS-PAGE) (Invitrogen, Groningen, The Netherlands). In the multimerization studies, MIA protein (1 μg) was incubated with AR71 (2.5 μg) overnight at RT before being treated as described above. After transferring the proteins onto a polyvinylidene fluoride (PVDF) membrane (BioRad, Richmond, Va., USA), the membrane was blocked using 3% BSA/PBS for 1 h at RT and incubated with a 1:150 dilution of primary polyclonal rabbit anti MIA antibody (Biogenes, Berlin, Germany) in 3% BSA/PBS overnight at 4° C. After washing in PBS the membrane was incubated with a 1:2000 dilution of an […] coupled secondary antibody (Chemikon, Hofheim, Germany) for 2 h at RT. Finally, after washing steps, immunoreactions were visualized by nitro blue tetrazolium/5-bromo-4-chloro-3-indolyl phosphate (NBT/BCIP) (Invitrogen, Karlsruhe, Germany) staining.
(Immunoblotting shows a protein as a band on a membrane.)

Data set [3] concerns Mel Im melanoma cells. As to the kind of experiment: Boyden chamber invasion assay (MIA activity). The conditions noted are these: MIA pre-incubated with peptide, Mel Im cells (FIG. 7). It counts as cell-based, human. The protocol: Invasion assays were performed in Boyden Chambers containing polycarbonate filters with 8-μm pore size (Neuro Probe, Gaithersburg, Md., USA) essentially as described previously.^13 Filters were coated with matrigel, a commercially available reconstituted basement membrane (diluted 1:3 in H2O; BD Bioscience, Bradford, Mass., USA). The lower compartment was filled with fibroblast-conditioned medium used as a chemo attractant. Mel Im melanoma cells were harvested by trypsinization for 2 min at RT, resuspended in DMEM without FCS at a density 2.5×10^4 cells/mL, and placed in the upper compartment of the chamber. Except for the control experiment with untreated cells and experiments where cells were only treated with the respective peptide, MIA was added to the cell suspension at a final concentration of 200 ng/mL. Peptide AR71 (sequence: Ac-FHWRYPLPLPGQ-NH2) was used at a final concentration of 1 μM. MIA expressing murine B16 melanoma cells stably co-transfected with Sig-AR71-HisTag containing pCMX-PL1 vector^27 and an antibiotic resistance comprising plasmid (pCDNA3), and the respective mock control were also investigated for their ability to migrate. Therefore, cells were harvested by trypsinization for 2 min at RT, resuspended in DMEM without FCS at a density 2.5×10^4 cells/mL, and placed in the upper compartment of the chamber. After incubation at 37° C. for 4 h filters were removed. Cells adhering to the lower surface of the filter were fixed, stained, and counted. Experiments were carried out in triplicates and repeated at least three times.

For data set [4], the target named is B2. As to the kind of experiment: HTFP competition assay.
Data set [5] concerns the target B2. As to the kind of experiment: HTFP competition assay: displacement of MIA-Ru(bpy)3 from immobilised MIA-biotin. As to the method:
(§2) In the control lanes the FP signal of MIA-Ru(bpy)₃ was measured in a well coated with MIA-biotin compared to an uncoated well. The significant increase in FP in the well coated with MIA-biotin indicates binding of MIA-Ru(bpy)₃ to the immobilized MIA-biotin. The binding of MIA-inhibitory compound AR71 promotes dissociation of MIA dimers and displaces the surface-bound MIA-Ru(bpy)₃, as reflected by a decrease in fluorescence polarization signal. […] Pre-incubation of MIA with the respective inhibitory peptide results in a complete neutralization of the MIA effect.
(§3) All measurements were performed at RT on a Polarstar Optima microplate reader (BMG Labtech, Offenburg, Germany). A 390-10 nm bandpass filter was used for excitation while a 520 nm longpass filter was used for the emission light. Even though the extinction coefficient is higher at longer wavelengths, the inventors chose a shorter excitation wavelength as this led to higher polarization values. MIA-Ru(bpy)₃ was prepared and tested for functional activity as described previously.¹⁴ A MIA-Ru(bpy)₃ concentration of 55 fM was used in all experiments. […] All measurements were performed in DPBS without calcium or magnesium (PAN Biotech GmbH, Aidenbach, Germany).

Data set [6] concerns the molecule itself. Kind of data set: HTFP assay: MIA-Ru(bpy)3 on immobilised MIA-biotin, increase in FP signal. The protocol:
as §2, §3

Data set [7] deals with the molecule itself. Kind of data set: Western blot, dimer band (FIG. 1B legend). As to the method:
as §1, with “In” for “Protein samples were denaturated at 70° C. for 10 min after addition of reducing and denaturing Roti-Load buffer (Roth, Karlsruhe, Germany) and subsequently separated on sodium dodecyl sulfate 12.75% polyacrylamid gels (SDS-PAGE) (Invitrogen, Groningen, The Netherlands). In”
(§4) Having identified the most likely positions of the dimerization interfaces, mutants of MIA were tested for their capability to form dimers by Western blot analysis (FIG. 1B). MIA mutants were expressed in an in vitro transcription/translation system. […] The sites of mutations not affecting functional activity (FIG. 1D, depicted by amino acid labels D29, S81 etc.) are located outside the dimerization regions, whereas G61R (FIG. 1D, depicted by G61) is buried in the dimerization cleft (depicted by the darker grey are in the left panel) in close proximity to the distal loop.

Data set [8] concerns the molecule itself. As to the kind of experiment: Western blot for dimer band, RTS-expressed mutant. The protocol: as §1, with “In” for “Protein samples were denaturated at 70° C. for 10 min after addition of reducing and denaturing Roti-Load buffer (Roth, Karlsruhe, Germany) and subsequently separated on sodium dodecyl sulfate 12.75% polyacrylamid gels (SDS-PAGE) (Invitrogen, Groningen, The Netherlands). In”
as §4

Turning to “FHWH (Peptide Sequence identified from HTFP assay screening) [JPT55]”, in data set [1], the “induction of Aggrecan during differentiation” value is “inhibit the induction”, the “induction of Sox9 during differentiation” value is recorded as “inhibit the induction” and the “induction of collagen type II during differentiation” value is listed as “inhibit the induction”.
As to “FHWRYPDPDPGQ (Peptide Sequence identified from HTFP assay screening) [JPT79]”, in data set [2], the “inhibition of dimerization of MIA” value was “efficiently inhibited”.
In the case of “WHF (Peptide Sequence identified from HTFP assay screening) [JPT67]”, the “inhibition of MIA-activity (neutralization of the MIA effect on invasion)” value in data set [3] is “inhibit MIA-activity”.
As to “WWW (Peptide Sequence identified from HTFP assay screening) [JPT73]”, the “inhibition of MIA-activity (neutralization of the MIA effect on invasion)” value in data set [3] is “inhibit MIA-activity”. Also, in data set [1], the “induction of Aggrecan during differentiation” value is given as “inhibit the induction”, the “induction of Sox9 during differentiation” value is “inhibit the induction” and the “induction of collagen type II during differentiation” value is listed as “inhibit the induction”.
Take FHWRYPLPLPGQHHHHHH [peptide JPT62]: the binding result in data set [4] is on record as “binds”.
Still for that read-out and setting: in the case of WHWRYP (also called WHWRYP) [peptide JPT26] it was “binds”.

B1: peptide AR71 (Ac-FHWRYPLPLPGQ-NH2) (peptide)
peptide: Ac-FHWRYPLPLPGQ-NH2
notes: Dodecapeptide previously identified by phage display
As to B1, the binding result in data set [5] is reported as “binds”.
Turning to FHWH (also called FHWH) [peptide JPT55], the binding result in data set [4] is “binds”.
With HHHHHHFHWRYPLPLPGQ [peptide JPT61], the binding result in data set [4] was “binds”.
As for B2, the binding result in data set [6] is “binds”.

B3: MIA mutant D29G/Y69H (other)
chain: GPMPKLADRKLCADQECSHPISMAVALQGYMAPDCRFLTIHRGQVVYVFSKLKGRGRLFWGGSVQGDYHGDLAARLGYFPSSIVREDQTLKPGKVDVKTDKWDFYCQ
notes: Expressed in the RTS in vitro transcription/translation system
As to B3, the binding result in data set [7] is “binds”.

B4: MIA mutant T89P (other)
chain: GPMPKLADRKLCADQECSHPISMAVALQDYMAPDCRFLTIHRGQVVYVFSKLKGRGRLFWGGSVQGDYYGDLAARLGYFPSSIVREDQPLKPGKVDVKTDKWDFYCQ
notes: as for B3
For the molecule B4, in data set [7], the binding result is reported as “binds”.

B5: MIA mutant K91N (other)
chain: GPMPKLADRKLCADQECSHPISMAVALQDYMAPDCRFLTIHRGQVVYVFSKLKGRGRLFWGGSVQGDYYGDLAARLGYFPSSIVREDQTLNPGKVDVKTDKWDFYCQ
notes: as for B3
As for B5, the binding result in data set [7] was “binds”.

B6: MIA mutant V46F/S81P (other)
chain: GPMPKLADRKLCADQECSHPISMAVALQDYMAPDCRFLTIHRGQVFYVFSKLKGRGRLFWGGSVQGDYYGDLAARLGYFPPSIVREDQTLKPGKVDVKTDKWDFYCQ
notes: as for B3
B6: in data set [7], the binding result was “binds”.

B7: MIA mutant G61R (other)
chain: GPMPKLADRKLCADQECSHPISMAVALQDYMAPDCRFLTIHRGQVVYVFSKLKGRGRLFWRGSVQGDYYGDLAARLGYFPSSIVREDQTLKPGKVDVKTDKWDFYCQ
notes: Expressed in the RTS in vitro transcription/translation system, unpurified
Regarding B7, in data set [8], the binding result is given as “no binding”.
Turning to FHWRYPDPDPGQ [peptide JPT79], the binding result in data set [4] was “binds”.
With FHWRYPGPGPGQ [peptide JPT4], the binding result in data set [4] is “binds”.
